Assay in all cases: HPLC, steroid hydroxylation rate, hyperbolic fit
Holding throughout (format): biochemical, Bacillus subtilis
What all share (conditions): 1 mM NADPH, redox partners Fdr_0978 (4 μM) and Fdx_1499 (20 μM), 2 mM MgCl2, pH 8.0, 30°C

Series [1] deals with T1, [H][C@@]12CC[C@H](O)[C@@]1(C)CCC1=C3CCC(=O)C=C3CC[C@]12[H].
T1 construct: assayed with separate redox partners Fdr_0978/Fdx_1499
The text has this: (§1) HPLC, steroid hydroxylation rate, hyperbolic fit on CYP109B1

The test system of series [2] is C[C@]12CC[C@H]3[C@@H](CCC4=CC(=O)CC[C@@]43C)[C@@H]1CC[C@@H]2O.
Source text: as §1

The subject of series [3] is C[C@]12CC[C@H]3[C@@H](CCC4=CC(=O)C=C[C@@]43C)[C@@H]1CC[C@@H]2O.
Source text: as §1

The test system of series [4] is T2, C[C@]12CC[C@H]3[C@@H](CCC4=CC(=O)CC[C@@H]43)[C@@H]1CC[C@@H]2O.
T2 construct: assayed with separate redox partners Fdr_0978/Fdx_1499
Source text: as §1

By Km is commonly meant the substrate concentration at which the rate is half of its maximum. For orientation: kcat means the maximal rate divided by the concentration of active sites. What is called kcat/Km is the turnover number divided by the Michaelis constant. Take “CYP109B1 (Bacillus subtilis subsp. subtilis str. 168)”: the Km is 163.1 ± 38.4 µM in series [1], 83.7 ± 20.4 µM in series [2], 193.1 ± 38.2 µM in series [3] and 136.3 ± 18.4 µM in series [4]. The kcat in series [1] worked out at 0.197 ± 0.0117 s⁻¹; in series [2], 0.0783 ± 0.005 s⁻¹; in series [3], 0.0583 ± 0.00333 s⁻¹; in series [4] it was 0.0717 ± 0.00167 s⁻¹. Further, the kcat/Km in series [1] was 1200 M⁻¹ s⁻¹; in series [2], 933 M⁻¹ s⁻¹; in series [3], 300 M⁻¹ s⁻¹; in series [4] it was 517 M⁻¹ s⁻¹.

Source of the values: article PMC7930613, “Exploring the Potential of Cytochrome P450 CYP109B1 Catalyzed Regio—and Stereoselective Steroid Hydroxylation” (Frontiers in Chemistry, 2021).
